Values quoted from earlier work as cited in article PMC8162889.

Biological target: EphA2 ECD (Homo sapiens) (UniProt P29317)
Test: MST

UniProt P29317, sequence (P29317 24-537): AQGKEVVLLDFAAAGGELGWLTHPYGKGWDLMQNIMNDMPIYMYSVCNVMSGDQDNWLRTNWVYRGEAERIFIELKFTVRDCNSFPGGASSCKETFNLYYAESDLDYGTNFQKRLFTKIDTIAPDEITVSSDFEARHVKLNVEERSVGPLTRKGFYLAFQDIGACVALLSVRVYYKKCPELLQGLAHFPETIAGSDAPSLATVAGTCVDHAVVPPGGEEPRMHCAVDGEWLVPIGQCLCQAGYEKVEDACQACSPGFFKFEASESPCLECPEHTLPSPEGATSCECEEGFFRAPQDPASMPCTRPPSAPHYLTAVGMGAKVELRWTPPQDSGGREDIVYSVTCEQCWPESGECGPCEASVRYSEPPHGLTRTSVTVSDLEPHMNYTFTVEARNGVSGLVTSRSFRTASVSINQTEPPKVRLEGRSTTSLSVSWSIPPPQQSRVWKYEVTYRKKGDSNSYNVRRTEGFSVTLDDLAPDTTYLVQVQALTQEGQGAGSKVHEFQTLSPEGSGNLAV

Kd: 1.2 nM
Substance: Progranulin (from UniProt P28799)
